Km data for 1 protein are collected here from article PMC11259132, “Tyrosine phenol-lyase inhibitor quercetin reduces fecal phenol levels in mice” (PNAS Nexus, 2024).

Substrate in this data set: N[C@@H](Cc1ccc(O)cc1)C(=O)O
Put plainly: enzyme kinetics (Km), phenol by LC-MS. Format: biochemical, Morganella morganii. The note with it: pyridoxal […]'-phosphate (PLP).

One may read the Km as the concentration of substrate that gives half-maximal velocity.

B1: Tyrosine phenol-lyase (TPL) (Morganella morganii subsp. morganii KT) (protein)
chain: MMYPAEPYRIKSVETVSMIPREERIKRMKEAGYNTFLLNSKDVYVDLLTDSGTNAMSDKQWAGMMMGDEAYAGSENFFHLERTVQELFGFKHIVPTHQGRGAENLLSSLAIKPGQYVAGNMYFTTTRYHQEKNGATFIDIVRDEAHDAGLDVKFKGNIDIKKLEKLIAEKGAENIAYICLAVTVNLAGGQPVSMANMREVRQLCDKHGIKVFYDATRCVENAYFIKEQEEGFEDVSIKDIVHEMFSYADGCTMSGKKDCLVNIGGFLCMNDDDMFSAARELVVVYEGMPSYGGLAGRDMEAMAIGLREAMQFEYIEHRVKQVRYLGEKLKAAGVPIVEPVGGHAVFLDARRFCPHLTQDEFPAQSLAASIYMETGVRSMERGIISAGRNKETGDHHRPKLETVRLTIPRRVYTYAHMDLVADGIIKLFKHKEDIKGLKFVYEPKQLRFFTARFDYV
notes: recombinant TPL from M. morganii ssp. morganii (JCM1672), pET-15b
Regarding B1, the Km is listed as 270 µM.
